Reference: patent publication US20110151450
Numbering of substitutions follows the chain as printed.

Legend:
Assay in all cases: cleavage_in_vitro
[1] = molecular target: T1, SfiI-WT (Streptomyces fimbriatus) (UniProt O52512); details: NEB4, relative activity 25%
T1 sequence: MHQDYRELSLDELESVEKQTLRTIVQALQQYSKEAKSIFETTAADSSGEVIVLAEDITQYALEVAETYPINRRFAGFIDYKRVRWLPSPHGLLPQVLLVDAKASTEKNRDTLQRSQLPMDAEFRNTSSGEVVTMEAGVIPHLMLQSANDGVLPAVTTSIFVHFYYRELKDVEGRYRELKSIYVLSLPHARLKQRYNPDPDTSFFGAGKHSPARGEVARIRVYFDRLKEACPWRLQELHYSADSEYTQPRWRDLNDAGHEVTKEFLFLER

[2] = test system: T2, PspGI-HF R75A (Pyrococcus species); details: NEB4, relative activity 100%
T2 sequence: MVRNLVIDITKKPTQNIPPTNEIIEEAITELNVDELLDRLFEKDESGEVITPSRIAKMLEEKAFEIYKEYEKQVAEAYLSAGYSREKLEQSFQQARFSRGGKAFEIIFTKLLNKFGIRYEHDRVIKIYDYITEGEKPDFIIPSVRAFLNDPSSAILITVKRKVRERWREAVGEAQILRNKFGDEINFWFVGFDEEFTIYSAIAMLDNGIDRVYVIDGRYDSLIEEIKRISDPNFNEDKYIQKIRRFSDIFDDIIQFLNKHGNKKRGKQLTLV

[3] = test system: T3, PspGI-WT (Pyrococcus species); details: NEB4, relative activity 100%
T3 sequence: T2 sequence with A75R

[4] = molecular target: T4, SfiI-HF R114A (Streptomyces fimbriatus) (UniProt O52512); details: NEB4, relative activity 100%
T4 sequence: T1 sequence with R114A

[5] = molecular target: T5, HindIII-WT (Haemophilus influenzae) (UniProt P43870); details: NEB4, relative activity 50%
T5 sequence: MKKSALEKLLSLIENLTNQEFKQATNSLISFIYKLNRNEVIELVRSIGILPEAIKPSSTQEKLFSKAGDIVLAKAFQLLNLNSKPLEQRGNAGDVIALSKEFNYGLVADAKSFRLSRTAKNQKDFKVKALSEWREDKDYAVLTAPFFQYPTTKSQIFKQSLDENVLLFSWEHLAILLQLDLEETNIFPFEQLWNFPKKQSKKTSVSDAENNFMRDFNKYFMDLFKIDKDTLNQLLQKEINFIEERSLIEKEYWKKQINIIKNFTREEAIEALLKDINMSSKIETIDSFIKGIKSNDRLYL

[6] = test system: T6, BsmBI-HF W238A (Bacillus stearothermophilus); details: NEB4, relative activity 100%
T6 sequence: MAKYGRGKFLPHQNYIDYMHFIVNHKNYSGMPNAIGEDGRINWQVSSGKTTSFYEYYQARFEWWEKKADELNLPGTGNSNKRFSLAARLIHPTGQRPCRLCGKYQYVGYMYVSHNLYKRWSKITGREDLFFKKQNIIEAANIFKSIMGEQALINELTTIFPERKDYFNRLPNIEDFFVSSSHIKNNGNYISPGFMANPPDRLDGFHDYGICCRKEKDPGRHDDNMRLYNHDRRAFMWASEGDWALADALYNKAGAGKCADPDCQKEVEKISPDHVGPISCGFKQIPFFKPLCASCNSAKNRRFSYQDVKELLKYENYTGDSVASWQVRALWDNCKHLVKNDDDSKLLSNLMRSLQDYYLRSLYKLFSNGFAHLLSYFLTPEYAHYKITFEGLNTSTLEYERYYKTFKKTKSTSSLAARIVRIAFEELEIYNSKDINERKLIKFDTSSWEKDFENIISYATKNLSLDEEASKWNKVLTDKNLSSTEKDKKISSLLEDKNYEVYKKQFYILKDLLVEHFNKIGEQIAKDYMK

[7] = test system: T7, BsmBI-WT (Bacillus stearothermophilus); details: NEB4, relative activity 25%
T7 sequence: T6 sequence with A238W

[8] = test system: T8, DraIII-WT (Deinococcus radiophilus); details: NEB4, 37 C 1 h, relative activity 50%
T8 sequence: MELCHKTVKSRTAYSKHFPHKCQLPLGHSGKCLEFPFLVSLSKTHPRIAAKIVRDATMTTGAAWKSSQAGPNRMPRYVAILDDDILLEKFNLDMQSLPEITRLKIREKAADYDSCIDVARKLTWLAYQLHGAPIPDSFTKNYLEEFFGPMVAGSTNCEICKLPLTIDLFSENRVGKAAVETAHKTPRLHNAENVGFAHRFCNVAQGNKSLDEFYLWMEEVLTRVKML

[9] = test system: T9, DraIII-HF T181A (Deinococcus radiophilus); details: NEB4, 37 C 1 h, relative activity 100%; Table 1 gives >=2000
T9 sequence: T8 sequence with T181A

[10] = test system: T10, BstXI-HF N65T (Bacillus stearothermophilus); details: NEB4, relative activity 100%
T10 sequence: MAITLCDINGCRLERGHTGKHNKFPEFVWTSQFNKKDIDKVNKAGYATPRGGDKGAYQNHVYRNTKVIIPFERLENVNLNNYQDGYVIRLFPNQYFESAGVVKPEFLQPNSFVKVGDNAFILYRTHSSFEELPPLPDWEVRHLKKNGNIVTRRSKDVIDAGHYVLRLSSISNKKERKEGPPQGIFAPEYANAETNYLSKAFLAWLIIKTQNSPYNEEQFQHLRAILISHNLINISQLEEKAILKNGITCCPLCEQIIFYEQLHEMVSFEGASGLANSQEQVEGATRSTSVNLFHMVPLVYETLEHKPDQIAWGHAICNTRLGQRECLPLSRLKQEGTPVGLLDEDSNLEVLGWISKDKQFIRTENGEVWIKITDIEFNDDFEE

[11] = test system: T11, BstXI-WT (Bacillus stearothermophilus); details: NEB4, relative activity 100%
T11 sequence: T10 sequence with T65N

[12] = test system: T12, BsmAI-HF N212A (Bacillus stearothermophilus); details: NEB4, relative activity 100%
T12 sequence: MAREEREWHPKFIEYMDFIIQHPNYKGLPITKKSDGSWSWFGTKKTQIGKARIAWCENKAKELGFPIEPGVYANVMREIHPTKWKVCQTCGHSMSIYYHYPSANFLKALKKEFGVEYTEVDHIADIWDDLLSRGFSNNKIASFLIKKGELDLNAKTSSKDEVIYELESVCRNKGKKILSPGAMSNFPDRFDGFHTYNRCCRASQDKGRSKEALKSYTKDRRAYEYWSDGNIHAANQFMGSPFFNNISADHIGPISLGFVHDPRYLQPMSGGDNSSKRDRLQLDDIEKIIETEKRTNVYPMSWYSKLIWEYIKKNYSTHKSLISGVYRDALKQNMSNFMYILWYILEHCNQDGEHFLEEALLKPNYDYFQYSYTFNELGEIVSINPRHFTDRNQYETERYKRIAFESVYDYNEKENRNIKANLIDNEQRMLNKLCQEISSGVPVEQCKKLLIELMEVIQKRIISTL

[13] = test system: T13, BsmAI-WT (Bacillus stearothermophilus); details: NEB4, relative activity 100%
T13 sequence: T12 sequence with A212N

pBC4 plasmid
activity (fidelity index) [1]: 64
activity (fidelity index) [2]: > 4000
activity (fidelity index) [3]: 1
activity (fidelity index) [4]: > 8000

lambda DNA, HindIII sites
activity (fidelity index) [5]: 32

lambda DNA, BsmBI sites
activity (fidelity index) [6]: 250
activity (fidelity index) [7]: 4

lambda DNA, DraIII sites
activity (fidelity index) [8]: 0.5
activity (fidelity index) [9]: > 64000

lambda DNA, BstXI sites
activity (fidelity index) [10]: > 1000
activity (fidelity index) [11]: 32

FX174 DNA
activity (fidelity index) [12]: > 4000
activity (fidelity index) [13]: 250
